Data: the DeepSol protein solubility set

assay: soluble on expression in E. coli; label from the status in PepcDB or PDB records

Soluble on expression in E. coli, not soluble:
MGSDKIHHHHHHMPNTFEHLQAAHCENGVTTNLLRNVGVSKMTEPLAFGIGSGLFFIYIPLMKINGGPAIAYRTMPGLIFKRTAQSLGIDVVRKTFRSTIKAQEFLDACIKAGQPVGCQVGVYFLSYFPKEYRFHFNAHNLIVYGKEGDNYLVSDPVMETTNILSTYELERVRFAKGALAPKGQIYFPKPNHEPVSDDKIRKAIVTGVKRNIRDMLHIPGPIAGVSGIKYTGNKIKNWRDKLGIEKAGLYLAQLVRMQEEIGTGGGGFRFIYGAFLQQAHAFHNDDQLLEISKSFTQSGDLWRSAAIQAAGIYKGRITSQADFNVMGDYLLEISELEKKAFKELTKIKWQK
MGSDKIHHHHHHMPPFILNSQNVFDYLSSLNLCTLEEGESSKIELKPAKNFNLLITFPEGRKLLVKQERHNLEGKTTGEFVLEWRIHDFVSRFPELNHIRSYLSEAIYFNWENSIIIFNYLDNYRDLMDFYVKENLNLFPTQLANAVGTTLALIHRTSFNCEEYRDFFQNPGESKSNPKTPHLNRGLDRLTPEIFGKVPADGLRFFALYQRYDSLGQAIAQLINSFTPCCLTHNDLKLNNILVSLDWEDIGDENIVRLIDWERGSWGDPANDLGTLIASYLQIWLYSMVTGKSIAIEESLRLAATPLYVLQPSLRELVIAYLTHFPEILEHHPDFLQRVMQFCGLALITAIQAQLQYEKTFGNVGICMLQVAKSLLCRPEASVQTIFGVQLSDLSPVSLSQV
MGSDKIHHHHHHMPRLLLVTNDFPPTVGGIQSYLRDFVALLPPEDVVVFASTQDPVAAREFDKSVPYKVVRYSSKLMLPTPQVKKLMVDLIKSEGVSTVWFGAAAPLAVMAPAARAAGAIQIISTTHGHEVGWSMVPGARSVLRFIGQHSDVVTYISDYTLRRFRRAFGEHPKFVHLPSGVDVERFYPVDEKQKFELRDQLGWAEKDKVIVCTSRLVPRKGQDTLIKAFPEIVQRCSEARLVIVGEGRIEGKLRRLAARDQKASSRISFEGRVSEEKMGMMLRGADVFAMPCRTRGGGLDVEGLGIVFLEAQACGVPVIAGDSGGAPETVTPASGVVVNGRDSSSVAHVIVDLVQQPAALMSMGHAGRQHVVDHWTWEIMGARLKSLIL
MGSDKIHHHHHHMPRPFRLSCALLHEPVSSNLMDLKYGDTSFSLAIPPERLMGVIRPSVPAPDSDPAAIISEALDRCADAIATFRTGERVVIVTSDITRYTGSEIYLPLLVERLAAAGVRERDIEIVVALGIHRKQTEHEHQRITGPLYGRIRITDHECDNPGKLVLIGRTSTGVDVVVNRTVAEADRVILTGTIGFHYFAGFGGGRKSILPGVAGRASCMASHYAVLNPGEGTGRNPLATTGNLEGNPVHQTMVEACAMVNPEFILNTVLSPAKRIIAAFAGHWREAHEEGCRFYADRFSFPLKKPADLVVVSCGGYPKDINVIQSHKSMEYGCQALRRGGVMVLLAQCRDGYGNATFFDWFRFRELDAFEARLRSHYEINGQTAFSLLQKARTFSIILVSDLPPEEVRTMGMTPARTLDEAMTAAASLLPSDYTAYVVPEGGTVLPIMM
MGSDKIHHHHHHMPRTIRIYRPTELPADEALPVIYMHDGQNVFSGETASFGKGWEVHHALHTVQLHAMIVAIDSPDDGMDRYDEYAPWTDEALLMRTAYPSHRKTIGGNGKQYMHWIVHELKPYIDAQYATIPTDTTMIGSSMGGVISLYGLFAYPEVFTRVAALSTAGWANFSSLLEFIERSPGLSEDHRCYMDVGTKEVSGPMTENDYLHTNEVLAKAVQKKVQQAAYEIIPGAVHHETEWAKRMPDILRFLFSS
MGSDKIHHHHHHMPSDAINEGQAQDAPRMRAAEYVRMSTEHQQYSTENQADKIREYAVRRGIDIIKTYADEGKSGLRIDGRQALQSLIRDVEAGTADFDIILVYDVSRWGRFQDADESAYYEYICRRAGIQVAYCAEQFENDGSPVSTIVKGVKRAMAGEYSRELSAKVFAGQCRLIELGYRQGGPAGYGLRRTLVDVKGEVKAELSRGEHKSLQTDRVILRPGPDEEVTIVNQIYRWFIDDGMYESEIAGRLNGMRVRTDLDREWTRATVREVLTNEKYVGHNVYNRVSFKLKKLRVVNPPEMWIRRDAAFPGVVPPDVFYTAQGIIRARAHRYTNEELIERLRGLYRNRGFLSGVVINETEDMPCAAVYAHRFGSLVRAYQLVGFTPDRDYRYVEINRALRRMHPDVLRQIEGQIAGLGGIVQRDAATDVLIVNGEFTVSIVLARCHEAAGMPNRWKIRLDSSLAPDISVAARLESGNQAVRDYYLLPKVDIGSSNISLAERNAAEFESYRFETLDYLYGMAARSRVRLAA
MGSDKIHHHHHHMPSVFQLQALCAAVEKPSLRQAAEALCKTQPALTHALKQLESQLGLPLFNRDGYRLVLTGSGERIYQLALKTLESHAELEQLAQHLARGDEDRVVLTVEASFDLTPILSALESVQAEFSQTEIVIQQEYLTGAVERVQQGHANLAITPLAPALSPGTRLDTQPLSQGQMLNVAAPRLLARYPSLCSILELRKEYQILVQDSGSGTLGLKLGVQSAQRHWYVNSFATKLSLIEQGMGWGRLPEWMLTEALAAGRLQLLELADFPARQRFDYHLVRRSASVPGPVATRLWQRLGGGAL
MGSDKIHHHHHHMPTPHLDTALSGPILDLERCILNAMPSIEQWLRNEWQTHAAPFYCSVDLRNSGFKLAPVDTNLFPGGFNNLNREFMPLCVQAMMAAIDKICTGARSVLLIPESHTRNIFYLQNLAALHAIMRHAGIHVRIGTLLPEITAPTALDLPGGNKLTLEPIQRKGNRVVLEDFDPCVVLLNNDLSTGTPAVLQNLEQTVIPPLHAGWTSRRKSHHFTAYDNVSQQFASLIGIDPWLINPYFASCGKINFREKKGEDCVANTVDEILHQIREKYAEYGVRKDPFVIVKADAGTYGMGIMTVKDGAQVRTLSRKQRNKMAVVKEGLEVTDIMVQEGVYTFENVDDAVAEPVIYMIDRYVVGGFYRVHTERGVDENLNAPGMHFVPLAFEDTCLLPDREAQPGCSANRFYAYGVIARLALLAAAQELEKSEARIEAIMA
MGSDKIHHHHHHMPTRSTPTERQKRLGAELRKMRLAAGAPTEYAAGLLGIDRTRLSNMESGIRPFSPDRVRTLACNYSCTDDGYIEALVAMTSTKERGWWERHRGILPSGLLDIAELEWHATRVRTAQVMHAPGLLQTEDYARGVFTAVLPPLTRLEVELRVAHRMERQQVLERPSPLPYIAYVHEAVLRMPYGGTEATQQQLKHLCSQSERENIEVRVIPTSTGGFPGAGHALLYADGAVPQLDTVQLDSAHGPEFTHADAQLTKYRSHLNWMDGAAMTSAASRDLIRKIARDL
MGSDKIHHHHHHMPVVDAAWEEWLSSNVARGCSPDSMIDAMVQAGFATDAARVAVHKTFGQNPANPAFAAAAATEAALAKAAPQTYQYDDPPVARGNLIRAYDRDVRVVMRCERPQVIVFADVLSPDECAEMIERSRHRLKRSTTVNPATGKEDVIRNRTSEGIWYQRGEDPFIERMDRRISSLMNWPVENGEGLQILHYGTTGEYRPHFDYFPPDQPGSAVHTAQGGQRVATLVIYLNDVPDGGETIFPEAGMSVAASQGGAVYFRYMNDRRQLDPLTLHGGAPVLAGDKWIMTKWMRERAYG
MGSDKIHHHHHHMQEIHTIMKHMDALIADPSAAAFKATLPFAELLEKLHNKKALFDAALAKSAERADAGRIIGKTSHIDALAYLLDISKSEAFRRTKRAEEHYGNPSPEPSSEELAKETPEEKLAREEKEKQDLAEQAEANRIAREHGISAEKQDTIRYELEKLNDNTSLSRASLRKLAMQEATSRTPEDLRNWTRNKVIRINPTAKDPLAAVKKRSLSIGRQDHDGGAKASLYLDAKGLALLKSLMSKAKPGHLLEDSLAEDKRTKPQRQYDAFADILHRAHSDLLPARSGVGTILVSLSAKDVTNLKASGPDHRYPTSTGIKLTPLEILRLGAAKYDFVTVLDSESGRPLHLARTQRTASLYQRLALFASELVCTREGCDSPFEDNEIHHIRSWLDGGPTDIENITNICPHDHGNNNDQRDGKDNMGHMNIDPTTGRVGYQPADRRKPMRFNNTAAAAESGGAQART
MGSDKIHHHHHHMQIKEFLISRRSEVVNNFYDNYYTQTDEYKLRLSAGEDEQSIRSLSTASCGMIIDVITGVKERDFENIGKRRFNDKTDIRKIHQHMSEIDKFIINSLLKWKETEDVFYTDADIIQFMLEIKDTLASIQQQLLEGFMQENRNQVMAQRKEIIQLSTRIIPITDSIGVLPIVGSLDDDRGYFMKEKAIESADKLNLDFIVIDFSSAVLKDDFATKHMEDMIQSFKLIGLIPILSGMQPSFAQRTIQVGSNISKLQSFGSLEQALTNLGL
MGSDKIHHHHHHMQINRLFEIIYILLENRTITAAELAERFEVSARTIYRDVEILAQGGMPIYMSKGKGGGISLLPDFILNKAVLTEEEKSEILSSLQAFNAVNLSKSETALSKLTSMLGAKNTDWIEVDFSSWGHFENDRAYFENIKTAIIEKKIITFMYASGKAEKLLREVLPLKLVFKGAAWYLYGYCTLRRDYRFFKLRRITELAVTDTGFEMKTPETIFAGQKLDTGTYLKAKLLISKTMAFRVYDEISSYEIDEKGDFVCRLYLPDIATLCTYAASFGEHCIILSPEQAVAEMKRRLQNSLKNYS
MGSDKIHHHHHHMQKSLEKCSAIDYLIVLGGRHVNETIYLADERKRLPSLVKHHRASPGRLIRECEIPPLFDVIISGEAEKLIAEIGELFSRCNQSPATFIAENLDMKTEGRWIADFPRIDNTLVSDGVPLKRDELPSVVGTFGVTASFDVFEGRMTSHIFSDTGPGCIYDCNFCSERRSIAGNIQDIQGAPRRLYNQLNETVSAVMQDHPSKGASAFVEDSIFLSGSPVAITQLCQLLEKAPLEVIFGGQFTIDQILRKKDLIQRLAKCGLRYIFIGLETLEPQEIGGMSKDVDGNKQTWKDRFLQALDFMAANHIDCGCALLFGLGEAHISRRNLLNGLIKLKQETGQPITLSANWAVRHPLRSSRESENENYLRRGTPEGELLEYFHRFGEASLEYPLPNVCAPQVGEVKEIILLLNEFEASDA
MGSDKIHHHHHHMQLAQARNDNGERFVLVIEDDPTQARRLDDVNSVHALALTALDRKVGLAALIKEWPGDARVDAVALADKGQLLAPLDHPDPAHLLVTGTGLTHLGSAEGRDKMHRQMNEADQSDQPLTDSMKMFRKGLEGGKPAPGDFGVQPEWFYKGDGGIVMAPGEALRMPHFALDGGEEPEVAGLYLIDNDGVPRRIGYALGNEFSDHVTERENYLYLAHSKLRACSFGPTLLIDELPDDVQGTSRIRRGDEVLWEKPFISGEANMCHTLANLEAHHFKYAQFCRPGDVHVHFFGTATLSFSDGIIPQPGDVFEIDAKPFALPLRNPLSKDAVAPAPSVKPL
MGSDKIHHHHHHMQLPISQYNELLQKKLEKLTALLHPFNAPDIQVFDSPTSHYRMRAEFRIWHEQDDFYHIMFDQATLQRYRVDEFPIASMLINRMMQTLLPLLKQQEVLHKKLFQIDYLSTLSNKIIVSLLYHKTLTEEWESAAKNLKDLLEKQDFDVQIIGRASKQKICFEQDYVDEVLPVNGRNYVYRQVENSFTQPNATVNCKMLEWAIDCTQNSEGDLLELYCGNGNFSIALAQNFRKVLATEIAKPSVAAAQFNIAENKVDNLQIIRMSAEEFTQAMNGVRAFNRLKGIDLKSYECNTIFVDPPRAGLDPDTVKLVQNYDRILYISCNPHTLCDNLVELSKTHRIEKAALFDQFPYTDHMESGLWLIRK
MGSDKIHHHHHHMQLPSLQSATLIRRYKRFLADVQLPSGDITTLHCANTGAMIGCGSQGDTLWYSTSDSATRKYPSSWELTQLANGHLVCINTHRSNQLTFDALQKKQIIELAMYDKIYPEVKYGEENSRIDFLLKGKDLPDCYVEVKSITYVDNDKKLGMFPDAVTTRGQKHLRELISMKKQGHRAVIFFCGLHDGFDHFQIAKHIDARYDELLHQALKEGVEAYAYAAEFEKTQGIPTALNLTKVAPFKAG
